How the values were obtained:
Test in all cases: cell-based or functional assay
[1] = biological target: HIV-1 Env of isolate APV_17 (HIV-1)
[2] = biological target: HIV-1 Env of isolate 92UG001 (subtype D), on pseudovirus (HIV-1)
[3] = biological target: HIV-1 Env of isolate MGRM-AE-004 (pseudovirus) (HIV-1)
[4] = biological target: HIV-1 Env of isolate 92RW009 (clade A), on pseudovirus (HIV-1)
[5] = biological target: HIV-1 Env of isolate MGRM-AE-002 (pseudovirus) (HIV-1)
[6] = biological target: HIV-1 Env of isolate 92WR020 (pseudovirus) (HIV-1)
[7] = biological target: HIV-1 Env of isolate 92RW008 (clade A), on pseudovirus (HIV-1)
[8] = biological target: HIV-1 Env of isolate MG RM-A-008 (pseudovirus) (HIV-1)
[9] = biological target: HIV-1 Env of isolate MGRM-AE-003 (pseudovirus) (HIV-1)
[10] = biological target: HIV-1 Env of isolate 92UG037 (pseudovirus) (HIV-1)
[11] = biological target: HIV-1 Env of isolate MG RM-A-012 (pseudovirus) (HIV-1)
[12] = biological target: HIV-1 Env of isolate MGRM-AE-006 (pseudovirus) (HIV-1)
[13] = biological target: HIV-1 Env of isolate MGRM-F1-022 (clade F), on pseudovirus (HIV-1)
[14] = biological target: HIV-1 envelope glycoprotein (Env) of isolate MGRM-Chronic-B-003, on pseudovirus (HIV-1)
[15] = biological target: HIV-1 envelope glycoprotein (Env) of isolate 92BR020, on pseudovirus (HIV-1)
[16] = biological target: HIV-1 envelope glycoprotein (Env) of isolate JRFL, on pseudovirus (HIV-1)
[17] = biological target: HIV-1 envelope glycoprotein (Env) of isolate APV_13, on pseudovirus (HIV-1)
[18] = biological target: HIV-1 Env of isolate MGRM-A-010 (clade A) (HIV-1)
[19] = biological target: aMLV envelope (negative control pseudovirus) (aMLV)
[20] = biological target: HIV-1 Env of isolate THRO.18 (HIV-1)
[21] = biological target: HIV-1 Env of isolate DU422 (HIV-1)
[22] = biological target: HIV-1 Env of isolate ZM249 (HIV-1)
[23] = biological target: HIV-1 Env of isolate ZM233 (HIV-1)
[24] = biological target: HIV-1 92TH021 Env (pseudovirus) (HIV-1)
[25] = biological target: HIV-1 92BR020 Env (clade B pseudovirus) (HIV-1)
[26] = biological target: HIV-1 MGRM-D-001 Env (clade D pseudovirus) (HIV-1)
[27] = biological target: HIV-1 CMU02 Env (clade AE pseudovirus) (HIV-1)
[28] = biological target: HIV-1 MGRM-D-018 Env (clade D pseudovirus) (HIV-1)
[29] = biological target: HIV-1 92TH021 Env (clade AE pseudovirus) (HIV-1)
[30] = biological target: HIV-1 APV6 Env (clade B pseudovirus) (HIV-1)
[31] = biological target: HIV-1 92UG005 Env (clade D pseudovirus) (HIV-1)

1443_C16 (PG16) (TCN-116) (antibody), sequence (VH): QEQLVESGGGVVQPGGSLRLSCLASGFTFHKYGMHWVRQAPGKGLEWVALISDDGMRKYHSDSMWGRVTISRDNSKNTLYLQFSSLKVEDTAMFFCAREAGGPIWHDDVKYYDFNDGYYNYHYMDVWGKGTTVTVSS
1443_C16 (PG16) (TCN-116) (antibody), sequence (VL): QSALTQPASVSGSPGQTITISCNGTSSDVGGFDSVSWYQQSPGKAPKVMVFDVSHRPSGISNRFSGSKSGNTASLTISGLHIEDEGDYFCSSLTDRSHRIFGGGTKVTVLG

VRC01 (antibody)
IC50 [1]: 0.477 µg/mL | IC50, pseudovirus neutralization [2]: 1.16 µg/mL | IC50 (µg/mL), pseudovirus neutralization [3]: 0.187 µg/mL | IC50, single-round pseudovirus neutralization [4]: 0.187 µg/mL | IC50 (µg/mL), pseudovirus neutralization [5]: 0.217 µg/mL | IC50 (µg/mL), pseudovirus neutralization [6]: 0.13 µg/mL | IC50, single-round pseudovirus neutralization [7]: 0.037 µg/mL | IC50 (µg/mL), pseudovirus neutralization [8]: 0.303 µg/mL | IC50 (µg/mL), pseudovirus neutralization [9]: 0.685 µg/mL | IC50 (µg/mL), pseudovirus neutralization [10]: 0.245 µg/mL | IC50 (µg/mL), pseudovirus neutralization [11]: > 50 µg/mL | IC50 (µg/mL), pseudovirus neutralization [12]: 4.65 µg/mL

PGV04 (antibody)
IC50 (µg/mL), single-round pseudovirus neutralization [13]: 0.072 µg/mL | IC50, pseudovirus neutralization [14]: 0.258 µg/mL | IC50, pseudovirus neutralization [15]: 0.25 µg/mL | IC50, pseudovirus neutralization [16]: 0.032 µg/mL | IC50, pseudovirus neutralization [17]: 1.23 µg/mL

5147_N06 (PGT-130) (antibody)
neutralization IC50 [18]: 0.0054 µg/mL | neutralization IC80 [18]: 0.0251 µg/mL | neutralization IC90 [18]: 0.0643 µg/mL | neutralization IC95 [18]: 0.164 µg/mL | neutralization IC50 [19]: > 10 µg/mL | neutralization IC80 [19]: > 10 µg/mL | neutralization IC90 [19]: > 10 µg/mL | neutralization IC95 [19]: > 10 µg/mL

1443_C16 (PG16) (TCN-116) (antibody)
IC50, pseudovirus neutralization (TZM-bl) [20]: 2.19 µg/mL | IC50, pseudovirus neutralization (TZM-bl) [21]: 0.59 µg/mL | IC50, pseudovirus neutralization (TZM-bl) [22]: < 0.01 µg/mL | IC50, pseudovirus neutralization (TZM-bl) [23]: < 0.01 µg/mL

5141_B17 (PGT-126) (antibody)
IC50 [24]: 0.115 µg/mL | IC80 [24]: 1.62 µg/mL | IC90 [24]: 6.91 µg/mL | IC95 [24]: > 10 µg/mL

4877_D15 (PGT-122) (antibody)
Neutralization by PGT-122, IC50 [25]: 0.0337 µg/mL | Neutralization by PGT-122, IC80 [25]: 0.0929 µg/mL | Neutralization by PGT-122, IC90 [25]: 0.168 µg/mL | Neutralization by PGT-122, IC95 [25]: 0.289 µg/mL | Neutralization by PGT-122, IC50 [26]: 0.867 µg/mL | Neutralization by PGT-122, IC80 [26]: 4.48 µg/mL | Neutralization by PGT-122, IC90 [26]: > 10 µg/mL | Neutralization by PGT-122, IC95 [26]: > 10 µg/mL | Neutralization by PGT-122, IC50 [27]: > 10 µg/mL | Neutralization by PGT-122, IC80 [27]: > 10 µg/mL | Neutralization by PGT-122, IC90 [27]: > 10 µg/mL | Neutralization by PGT-122, IC95 [27]: > 10 µg/mL | Neutralization by PGT-122, IC50 [28]: 0.0115 µg/mL | Neutralization by PGT-122, IC80 [28]: 0.035 µg/mL | Neutralization by PGT-122, IC90 [28]: 0.0674 µg/mL | Neutralization by PGT-122, IC95 [28]: 0.125 µg/mL | Neutralization by PGT-122, IC50 [29]: > 10 µg/mL | Neutralization by PGT-122, IC80 [29]: > 10 µg/mL | Neutralization by PGT-122, IC90 [29]: > 10 µg/mL | Neutralization by PGT-122, IC95 [29]: > 10 µg/mL | Neutralization by PGT-122, IC50 [30]: 0.0851 µg/mL | Neutralization by PGT-122, IC80 [30]: 0.351 µg/mL | Neutralization by PGT-122, IC90 [30]: 0.779 µg/mL | Neutralization by PGT-122, IC95 [30]: 1.55 µg/mL | Neutralization by PGT-122, IC50 [31]: > 10 µg/mL | Neutralization by PGT-122, IC80 [31]: > 10 µg/mL | Neutralization by PGT-122, IC90 [31]: > 10 µg/mL | Neutralization by PGT-122, IC95 [31]: > 10 µg/mL

Reference: US20200024330A1
